# Reference: patent US20220153831A1 (HEDGEHOG, published 2022)
# T1: active human ETA (purified) (human, UniProt P25101 21-427)
# T1 construct: also called human endothelin receptor type A
# T1 sequence: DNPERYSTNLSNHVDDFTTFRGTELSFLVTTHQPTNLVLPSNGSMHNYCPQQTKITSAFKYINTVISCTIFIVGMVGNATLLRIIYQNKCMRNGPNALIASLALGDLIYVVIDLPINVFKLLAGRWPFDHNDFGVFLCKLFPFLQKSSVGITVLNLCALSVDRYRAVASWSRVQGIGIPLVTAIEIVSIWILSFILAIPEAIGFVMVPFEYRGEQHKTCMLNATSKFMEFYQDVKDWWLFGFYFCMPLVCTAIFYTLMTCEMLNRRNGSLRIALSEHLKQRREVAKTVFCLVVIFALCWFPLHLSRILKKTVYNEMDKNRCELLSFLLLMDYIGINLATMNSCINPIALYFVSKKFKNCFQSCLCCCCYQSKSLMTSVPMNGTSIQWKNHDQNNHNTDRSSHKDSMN
# Target: T1, active human ETA (purified)
# Assay: ELISA on purified active ETA
# Method: The cross-binding activities of the developed antibodies to human ETA and mouse ETA were tested by ELISA.
row,binding result,Binder
1,binds,"AB9 (antibody, V domains shown, also called lead antibody) VH: EVQLVESGAEVRKPGASVKVSCKASGYTFTSSDINWIRQATGQGLEWMGYMNPKNGNTDYAQKFQGRISMTRDSSISTAYMELSSLRSEDTAVYYCAKDRYGSGTYGEGMDVWGPGTLVT VL: DIVMTQSPSAMSASVGDRVSITCRASQGINNYLAWFQQKPGKVPKRLMDVGSILQSGIPSRFRGRGSGTQFTLTISSLQAEDSGTYFCLQHNTYPLTFGPGTKVEIKR"
2,binds,"FG12 (antibody, V domains shown, also called lead antibody) VH: EVQLVESGAEVRKPGASVKVSCKASGYTFTSSDINWIRQATGQGLEWMGYMNPKNGNTDYAQKFQGRISMTRDSSISTAYMELSSLRSEDTAVYYCAKDRYGLGTYGFGMDVWGPGTLVT VL: DIVMTQSPSAMSASVGDRVSITCRASQGINNYLAWFQQKPGKVPKRLMDVGSILQSGIPSRFRGRGSGTQFTLTISSLQAEDSGTYFCLQHNTYPLTFGPGTKVEIKR"
3,binds,"GG12 (antibody, V domains shown, also called lead antibody) VH: EVQLVESGAEVRKPGASVKVSCKASGYTFTSSDINWIRQATGQGLEWMGYMNPKNGNTDYAQKFQGRISMTRDSSISTAYMELSSLRSEDTAVYYCAKDRYGSGVYGFGMDVWGPGTLVT VL: DIVMTQSPSAMSASVGDRVSITCRASQGINNYLAWFQQKPGKVPKRLMDVGSILQSGIPSRFRGRGSGTQFTLTISSLQAEDSGTYFCLQHNTYPLTFGPGTKVEIKR"
4,binds,"EF12 (antibody, V domains shown, also called lead antibody) VH: EVQLVESGAEVRKPGASVKVSCKASGYTFTSSDINWIRQATGQGLEWMGYMNPKNGNTDYAQKFQGRISMTRDSSISTAYMELSSLRSEDTAVYYCAKDPYGSGTYGFGMDVWGPGTLVT VL: DIVMTQSPSAMSASVGDRVSITCRASQGINNYLAWFQQKPGKVPKRLMDVGSILQSGIPSRFRGRGSGTQFTLTISSLQAEDSGTYFCLQHNTYPLTFGPGTKVEIKR"
